# T1: Ang-2 (R&D systems; 623-AN-025/CF) (human, UniProt O15123 19-496)
# T1 sequence: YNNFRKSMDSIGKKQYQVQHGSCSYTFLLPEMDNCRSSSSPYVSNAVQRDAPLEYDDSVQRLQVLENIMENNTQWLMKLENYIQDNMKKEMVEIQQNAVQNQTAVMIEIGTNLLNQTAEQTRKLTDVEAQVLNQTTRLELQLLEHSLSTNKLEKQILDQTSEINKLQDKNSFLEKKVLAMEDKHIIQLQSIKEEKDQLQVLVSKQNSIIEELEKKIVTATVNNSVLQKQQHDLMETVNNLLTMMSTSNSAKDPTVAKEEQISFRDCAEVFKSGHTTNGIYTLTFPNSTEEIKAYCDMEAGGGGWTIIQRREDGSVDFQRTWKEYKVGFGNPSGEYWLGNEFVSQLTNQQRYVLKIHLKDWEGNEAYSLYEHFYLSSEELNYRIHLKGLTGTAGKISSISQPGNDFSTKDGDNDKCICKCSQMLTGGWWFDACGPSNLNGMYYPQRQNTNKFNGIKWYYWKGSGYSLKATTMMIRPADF
# B1: SAIT-Ang-2-AB-m7F8 (antibody, V domains shown)
# VH: DVQLQESGPGLVKPSQSLSLTCTVTGYSITSDYAWNWIRQFPGNKLEWMGYISYSGSTSYNPSLKSRISITRDTSKNQFFLQLNSVTPEDTATYYCARSTFGHYVSSMDYWGQGTSVTVSS
# VL: SIVMTQTPKLLLVSAGDRVTITCKASQSASNDVAWYQQKPGQSPKLLIYYASNRYTGVPDRFTGSGYGTDFTFAISTVQAEDLAIYFCQQDYSSPPTFGGGTKLEIK
# B2: FLAG-tagged hAng-2 (ligand)
# chain: DYKDDDDKYNNFRKSMDSIGKKQYQVQHGSCSYTFLLPEMDNCRSSSSPYVSNAVQRDAPLEYDDSVQRLQVLENIMENNTQWLMKLENYIQDNMKKEMVEIQQNAVQNQTAVMIEIGTNLLNQTAEQTRKLTDVEAQVLNQTTRLELQLLEHSLSTNKLEKQILDQTSEINKLQDKNSFLEKKVLAMEDKHIIQLQSIKEEKDQLQVLVSKQNSIIEELEKKIVTATVNNSVLQKQQHDLMETVNNLLTMMSTSNSAKDPTVAKEEQISFRDCAEVFKSGHTTNGIYTLTFPNSTEEIKAYCDMEAGGGGWTIIQRREDGSVDFQRTWKEYKVGFGNPSGEYWLGNEFVSQLTNQQRYVLKIHLKDWEGNEAYSLYEHFYLSSEELNYRIHLKGLTGTAGKISSISQPGNDFSTKDGDNDKCICKCSQMLTGGWWFDACGPSNLNGMYYPQRQNTNKFNGIKWYYWKGSGYSLKATTMMIRPADF
# notes: also called FLAG-Ang-2
# Columns and labels:
# [1] = target: mutant Ang-2 protein, A449 substituted with alanine (FLAG-tagged at N-terminal) (human) (UniProt O15123); assay: ELISA, antibody coated, 250 ng FLAG-tagged mutant Ang-2, anti-FLAG-HRP, OD450 relative to native Ang-2
# [2] = target: T1, Ang-2 (R&D systems; 623-AN-025/CF); assay: cell-based or functional assay
# [3] = target: T2, integrin alphaVbeta3 (R&D systems) (human, UniProt P06756 31-992; P05106 27-718); assay: ELISA, integrin coated at 5 ug/ml, FLAG-Ang-2 10 ug/ml, anti-FLAG-HRP
# T2 construct: Bought heterodimer coated on an ELISA plate; also called αVβ3; purified alphaVbeta3 protein
# Procedure: (§1) An ELISA plate was coated with diluting solutions of three kinds of integrin (integrin; alpha5beta1 (α5β1; α5: NCBI Accession No. P08648, β1: NCBI Accession No. P05556), alphaVbeta1 (αVβ1; αV: NCBI Accession No. P06756, β1: NCBI Accession No. P05556), and alphaVbeta3 (αVβ3; αV: NCBI Accession No. P06756, β3: NCBI Accession No. P05106); R&D systems) proteins diluted in PBS at a concentration of 5 μg/ml (18 hours, 4° C.) and then blocked with 1% (v/v) BSA at a room temperature for 1 hour. Thereafter, the plate was treated with Ang-2 protein (FLAG-Ang-2, 0.1 ml of Ang-2 protein solution diluted in PBS at a concentration of 10 μg/ml) tagged with a FLAG sequence ([…], Sigma) at N-terminal, incubated at a room temperature for 2 hours, and washed five times with 0.05% PBST (0.05% (v/v) Tween-20-containing phosphate buffer saline). After that, an anti-FLAG antibody (Sigma) conjugated with horseradish peroxidase (HRP) was added to react, and the plate was washed again five times with PBST. Bindings between Ang-2 and the three kinds of integrins were identified indirectly by measuring the amounts of the anti-FLAG antibody remaining in the ELISA plate via color development reaction using TMB (3,3,5,5-tetramethylbenzidine) as a substrate of HRP. As a negative control, those that were blocked only (treated with BSA only) without Ang-2 protein treatment were used.
# [4] = target: T3, integrin alphaVbeta1 (R&D systems) (human, UniProt P06756 31-992; P05556 21-728); assay: as above
# T3 construct: Bought heterodimer coated on an ELISA plate; also called αVβ1
# Procedure: as §1
# [5] = target: T4, integrin alpha5beta1 (R&D systems) (human, UniProt P08648 42-995; P05556 21-728); assay: as above
# T4 construct: Bought heterodimer coated on an ELISA plate; also called α5β1
# Procedure: as §1
# T4 sequence (P08648 42-995 limits assumed, chain 1 of 2): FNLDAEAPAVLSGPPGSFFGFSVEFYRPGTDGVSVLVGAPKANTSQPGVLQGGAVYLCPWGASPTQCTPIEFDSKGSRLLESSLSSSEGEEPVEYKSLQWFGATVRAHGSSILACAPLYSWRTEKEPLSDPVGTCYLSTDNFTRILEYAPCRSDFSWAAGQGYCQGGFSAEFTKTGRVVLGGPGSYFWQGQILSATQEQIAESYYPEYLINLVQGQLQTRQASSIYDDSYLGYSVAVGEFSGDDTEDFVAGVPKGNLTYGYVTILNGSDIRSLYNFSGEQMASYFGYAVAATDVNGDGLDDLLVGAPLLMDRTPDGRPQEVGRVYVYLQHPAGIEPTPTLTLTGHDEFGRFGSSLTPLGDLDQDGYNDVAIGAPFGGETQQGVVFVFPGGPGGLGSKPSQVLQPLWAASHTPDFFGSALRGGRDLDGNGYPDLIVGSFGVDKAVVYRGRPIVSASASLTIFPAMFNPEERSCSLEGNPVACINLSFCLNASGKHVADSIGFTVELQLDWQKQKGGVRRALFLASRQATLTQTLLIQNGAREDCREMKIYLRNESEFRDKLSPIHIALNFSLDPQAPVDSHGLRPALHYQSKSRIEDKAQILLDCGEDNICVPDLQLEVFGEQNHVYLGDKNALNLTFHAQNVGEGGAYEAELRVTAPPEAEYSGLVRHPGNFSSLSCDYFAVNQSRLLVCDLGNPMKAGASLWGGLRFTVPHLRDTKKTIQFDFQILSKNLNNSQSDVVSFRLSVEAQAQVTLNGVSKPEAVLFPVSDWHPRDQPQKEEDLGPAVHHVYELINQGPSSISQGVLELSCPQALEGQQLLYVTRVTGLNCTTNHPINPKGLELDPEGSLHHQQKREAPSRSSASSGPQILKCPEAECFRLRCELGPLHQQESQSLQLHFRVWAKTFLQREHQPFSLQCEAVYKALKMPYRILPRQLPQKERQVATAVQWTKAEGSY
# T4 sequence (P05556 21-728 limits assumed, chain 2 of 2): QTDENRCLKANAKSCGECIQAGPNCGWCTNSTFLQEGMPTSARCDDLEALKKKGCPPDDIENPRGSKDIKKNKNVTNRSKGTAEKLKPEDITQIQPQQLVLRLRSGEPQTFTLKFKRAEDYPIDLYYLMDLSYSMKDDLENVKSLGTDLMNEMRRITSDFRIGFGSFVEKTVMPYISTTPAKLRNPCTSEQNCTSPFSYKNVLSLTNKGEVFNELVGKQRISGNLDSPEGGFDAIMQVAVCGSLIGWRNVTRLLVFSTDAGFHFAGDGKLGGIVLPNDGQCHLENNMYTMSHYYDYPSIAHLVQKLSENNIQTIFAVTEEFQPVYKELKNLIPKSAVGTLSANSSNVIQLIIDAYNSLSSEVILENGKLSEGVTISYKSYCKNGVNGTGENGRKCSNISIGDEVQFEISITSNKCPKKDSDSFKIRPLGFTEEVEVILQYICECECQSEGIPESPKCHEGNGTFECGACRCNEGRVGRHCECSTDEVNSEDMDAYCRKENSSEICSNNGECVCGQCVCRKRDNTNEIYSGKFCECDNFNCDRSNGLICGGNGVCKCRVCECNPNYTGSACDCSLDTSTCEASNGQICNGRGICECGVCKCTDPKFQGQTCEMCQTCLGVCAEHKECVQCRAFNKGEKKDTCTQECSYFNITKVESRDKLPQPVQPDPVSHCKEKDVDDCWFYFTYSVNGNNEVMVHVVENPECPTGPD
# T2 sequence (P06756 31-992 limits assumed, chain 1 of 2): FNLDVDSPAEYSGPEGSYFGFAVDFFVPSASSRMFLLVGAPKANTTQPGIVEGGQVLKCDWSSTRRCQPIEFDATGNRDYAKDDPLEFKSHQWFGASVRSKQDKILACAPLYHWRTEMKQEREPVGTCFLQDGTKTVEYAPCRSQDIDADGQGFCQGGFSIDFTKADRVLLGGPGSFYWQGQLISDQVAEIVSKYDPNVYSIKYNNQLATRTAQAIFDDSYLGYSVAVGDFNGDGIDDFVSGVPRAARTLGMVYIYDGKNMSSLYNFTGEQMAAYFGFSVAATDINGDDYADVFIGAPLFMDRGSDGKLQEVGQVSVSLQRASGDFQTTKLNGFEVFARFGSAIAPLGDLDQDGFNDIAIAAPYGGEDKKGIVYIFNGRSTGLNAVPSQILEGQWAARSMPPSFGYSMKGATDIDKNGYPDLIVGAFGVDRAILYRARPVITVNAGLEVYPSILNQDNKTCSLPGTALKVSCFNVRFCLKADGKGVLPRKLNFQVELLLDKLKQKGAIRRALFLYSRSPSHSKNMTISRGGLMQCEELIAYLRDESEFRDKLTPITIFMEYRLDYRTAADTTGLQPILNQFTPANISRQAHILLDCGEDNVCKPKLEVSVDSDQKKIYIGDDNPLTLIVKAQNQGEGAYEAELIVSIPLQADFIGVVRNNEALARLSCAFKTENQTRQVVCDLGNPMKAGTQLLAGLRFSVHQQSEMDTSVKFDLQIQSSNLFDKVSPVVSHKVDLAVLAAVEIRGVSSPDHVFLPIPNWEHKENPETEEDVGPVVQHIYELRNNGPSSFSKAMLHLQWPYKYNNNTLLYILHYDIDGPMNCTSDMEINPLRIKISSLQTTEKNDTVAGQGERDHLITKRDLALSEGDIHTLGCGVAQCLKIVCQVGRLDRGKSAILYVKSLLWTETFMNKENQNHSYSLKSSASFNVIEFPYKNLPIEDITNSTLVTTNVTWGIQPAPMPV
# T2 sequence (P05106 27-718 limits assumed, chain 2 of 2): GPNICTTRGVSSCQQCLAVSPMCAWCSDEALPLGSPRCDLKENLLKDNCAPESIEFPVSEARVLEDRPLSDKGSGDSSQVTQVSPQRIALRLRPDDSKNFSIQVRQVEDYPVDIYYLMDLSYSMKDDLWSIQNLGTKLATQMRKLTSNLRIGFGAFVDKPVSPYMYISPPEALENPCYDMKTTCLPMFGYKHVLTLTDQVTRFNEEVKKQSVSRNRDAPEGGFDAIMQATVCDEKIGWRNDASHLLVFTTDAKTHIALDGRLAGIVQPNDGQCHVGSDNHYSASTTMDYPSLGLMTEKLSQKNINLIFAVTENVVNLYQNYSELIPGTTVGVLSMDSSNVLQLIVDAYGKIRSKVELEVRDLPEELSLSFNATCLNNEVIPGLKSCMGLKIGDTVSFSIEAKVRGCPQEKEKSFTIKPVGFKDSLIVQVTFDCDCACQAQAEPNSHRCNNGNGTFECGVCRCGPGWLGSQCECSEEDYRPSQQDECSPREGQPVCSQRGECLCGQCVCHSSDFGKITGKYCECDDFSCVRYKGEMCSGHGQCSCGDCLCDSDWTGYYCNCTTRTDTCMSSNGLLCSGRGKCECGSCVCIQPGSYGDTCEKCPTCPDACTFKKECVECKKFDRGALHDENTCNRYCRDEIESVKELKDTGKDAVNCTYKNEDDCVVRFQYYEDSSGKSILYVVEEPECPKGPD
# T3 sequence (P06756 31-992 limits assumed, chain 1 of 2): as the sequence (P06756 31-992 limits assumed, chain 1 of 2) above
# T3 sequence (P05556 21-728 limits assumed, chain 2 of 2): as the sequence (P05556 21-728 limits assumed, chain 2 of 2) above
Binder,% at RBD binding (mutant Ang-2 against native Ang-2) [1] [%],Ang-2-depedent Cell Adhesion Degree (%) [2] [%],binding result [3],binding result [4],binding result [5]
B1,94.1,35.1,,,
B2,,,binds,binds,binds

# — patent US20150010572A1 (SAMSUNG ELECTRONICS, published 2015)
